Patent publication US10131702B2, “Glucagon-GLP-1-GIP triple agonist compounds” (priority 2013, dated 2018)
Where two headings read alike, the source gives them in different places.

T1: human GIP receptor (human, UniProt P48546 22-466)
T1 sequence: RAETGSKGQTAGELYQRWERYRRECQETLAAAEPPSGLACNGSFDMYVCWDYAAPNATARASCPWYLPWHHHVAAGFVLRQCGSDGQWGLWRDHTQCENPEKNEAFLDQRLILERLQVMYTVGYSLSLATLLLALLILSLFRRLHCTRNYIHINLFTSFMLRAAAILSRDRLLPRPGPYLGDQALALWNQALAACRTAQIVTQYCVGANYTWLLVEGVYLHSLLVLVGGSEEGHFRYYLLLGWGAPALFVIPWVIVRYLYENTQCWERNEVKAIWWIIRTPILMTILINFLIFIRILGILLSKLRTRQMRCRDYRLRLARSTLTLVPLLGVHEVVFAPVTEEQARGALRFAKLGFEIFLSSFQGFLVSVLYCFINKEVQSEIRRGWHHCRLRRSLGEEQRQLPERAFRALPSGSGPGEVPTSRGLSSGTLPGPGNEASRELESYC

B1: Compound 42 (peptide)
peptide: YXQGTFTSDYSIALDKKAQRAFVNWLVAXKPSSGAPPPS
modifications: X at 2 and 29 = Aib; Lys 17 as K(Octadecanoyl-isoGlu-Peg3-Peg3); C-terminal amide (-NH2)
B2: Compound 20 (peptide)
peptide: YAQGTFTSDYSIYLEKKAAKEFVEWLLSA
HELM: PEPTIDE1{Y.[Aib].Q.G.T.F.T.S.D.Y.S.I.Y.L.E.K.K.A.A.K.E.F.V.E.W.L.L.S.A.[am]}$$$$V2.0
SMILES: CC[C@H](C)[C@H](NC(=O)[C@H](CO)NC(=O)[C@H](Cc1ccc(O)cc1)NC(=O)[C@H](CC(=O)O)NC(=O)[C@H](CO)NC(=O)[C@@H](NC(=O)[C@H](Cc1ccccc1)NC(=O)[C@@H](NC(=O)CNC(=O)[C@H](CCC(N)=O)NC(=O)C(C)(C)NC(=O)[C@@H](N)Cc1ccc(O)cc1)[C@@H](C)O)[C@@H](C)O)C(=O)N[C@@H](Cc1ccc(O)cc1)C(=O)N[C@@H](CC(C)C)C(=O)N[C@@H](CCC(=O)O)C(=O)N[C@@H](CCCCN)C(=O)N[C@@H](CCCCN)C(=O)N[C@@H](C)C(=O)N[C@@H](C)C(=O)N[C@@H](CCCCN)C(=O)N[C@@H](CCC(=O)O)C(=O)N[C@@H](Cc1ccccc1)C(=O)N[C@H](C(=O)N[C@@H](CCC(=O)O)C(=O)N[C@@H](Cc1c[nH]c2ccccc12)C(=O)N[C@@H](CC(C)C)C(=O)N[C@@H](CC(C)C)C(=O)N[C@@H](CO)C(=O)N[C@@H](C)C(N)=O)C(C)C
B3: Compound 21 (peptide)
peptide: YAQGTFTSDYSKALDEKAAKEFVEWLLSA
HELM: PEPTIDE1{Y.[Aib].Q.G.T.F.T.S.D.Y.S.K.A.L.D.E.K.A.A.K.E.F.V.E.W.L.L.S.A.[am]}$$$$V2.0
SMILES: CC(C)C[C@H](NC(=O)[C@H](C)NC(=O)[C@H](CCCCN)NC(=O)[C@H](CO)NC(=O)[C@H](Cc1ccc(O)cc1)NC(=O)[C@H](CC(=O)O)NC(=O)[C@H](CO)NC(=O)[C@@H](NC(=O)[C@H](Cc1ccccc1)NC(=O)[C@@H](NC(=O)CNC(=O)[C@H](CCC(N)=O)NC(=O)C(C)(C)NC(=O)[C@@H](N)Cc1ccc(O)cc1)[C@@H](C)O)[C@@H](C)O)C(=O)N[C@@H](CC(=O)O)C(=O)N[C@@H](CCC(=O)O)C(=O)N[C@@H](CCCCN)C(=O)N[C@@H](C)C(=O)N[C@@H](C)C(=O)N[C@@H](CCCCN)C(=O)N[C@@H](CCC(=O)O)C(=O)N[C@@H](Cc1ccccc1)C(=O)N[C@H](C(=O)N[C@@H](CCC(=O)O)C(=O)N[C@@H](Cc1c[nH]c2ccccc12)C(=O)N[C@@H](CC(C)C)C(=O)N[C@@H](CC(C)C)C(=O)N[C@@H](CO)C(=O)N[C@@H](C)C(N)=O)C(C)C
B4: Compound 22 (peptide)
peptide: YAQGTFTSDYSKYLEKKAQKEFVEWLLSA
HELM: PEPTIDE1{Y.[Aib].Q.G.T.F.T.S.D.Y.S.K.Y.L.E.K.K.A.Q.K.E.F.V.E.W.L.L.S.A.[am]}$$$$V2.0
SMILES: CC(C)C[C@H](NC(=O)[C@H](CC(C)C)NC(=O)[C@H](Cc1c[nH]c2ccccc12)NC(=O)[C@H](CCC(=O)O)NC(=O)[C@@H](NC(=O)[C@H](Cc1ccccc1)NC(=O)[C@H](CCC(=O)O)NC(=O)[C@H](CCCCN)NC(=O)[C@H](CCC(N)=O)NC(=O)[C@H](C)NC(=O)[C@H](CCCCN)NC(=O)[C@H](CCCCN)NC(=O)[C@H](CCC(=O)O)NC(=O)[C@H](CC(C)C)NC(=O)[C@H](Cc1ccc(O)cc1)NC(=O)[C@H](CCCCN)NC(=O)[C@H](CO)NC(=O)[C@H](Cc1ccc(O)cc1)NC(=O)[C@H](CC(=O)O)NC(=O)[C@H](CO)NC(=O)[C@@H](NC(=O)[C@H](Cc1ccccc1)NC(=O)[C@@H](NC(=O)CNC(=O)[C@H](CCC(N)=O)NC(=O)C(C)(C)NC(=O)[C@@H](N)Cc1ccc(O)cc1)[C@@H](C)O)[C@@H](C)O)C(C)C)C(=O)N[C@@H](CO)C(=O)N[C@@H](C)C(N)=O
B5: Compound 23 (peptide)
peptide: YAQGTFTSDYSIYLEKKAAKEFVEWLLSA
HELM: PEPTIDE1{Y.[Aib].Q.G.T.F.T.S.D.Y.S.I.Y.L.E.K.K.A.A.K.E.F.V.E.W.L.L.S.A.[am]}|PEPTIDE2{[CCCCCCCCCCCCCCCC(=O)[*:2]].[gGlu]}$PEPTIDE1,PEPTIDE2,17:R3-2:R2$$$V2.0
SMILES: CCCCCCCCCCCCCCCC(=O)N[C@@H](CCC(=O)NCCCC[C@H](NC(=O)[C@H](CCCCN)NC(=O)[C@H](CCC(=O)O)NC(=O)[C@H](CC(C)C)NC(=O)[C@H](Cc1ccc(O)cc1)NC(=O)[C@@H](NC(=O)[C@H](CO)NC(=O)[C@H](Cc1ccc(O)cc1)NC(=O)[C@H](CC(=O)O)NC(=O)[C@H](CO)NC(=O)[C@@H](NC(=O)[C@H](Cc1ccccc1)NC(=O)[C@@H](NC(=O)CNC(=O)[C@H](CCC(N)=O)NC(=O)C(C)(C)NC(=O)[C@@H](N)Cc1ccc(O)cc1)[C@@H](C)O)[C@@H](C)O)[C@@H](C)CC)C(=O)N[C@@H](C)C(=O)N[C@@H](C)C(=O)N[C@@H](CCCCN)C(=O)N[C@@H](CCC(=O)O)C(=O)N[C@@H](Cc1ccccc1)C(=O)N[C@H](C(=O)N[C@@H](CCC(=O)O)C(=O)N[C@@H](Cc1c[nH]c2ccccc12)C(=O)N[C@@H](CC(C)C)C(=O)N[C@@H](CC(C)C)C(=O)N[C@@H](CO)C(=O)N[C@@H](C)C(N)=O)C(C)C)C(=O)O
B6: Compound 24 (peptide)
peptide: YAQGTFTSDYSIYLEKKAAKEFVEWLLSA
HELM: PEPTIDE1{Y.[Aib].Q.G.T.F.T.S.D.Y.S.I.Y.L.E.K.K.A.A.K.E.F.V.E.W.L.L.S.A.[am]}|PEPTIDE2{[CCCCCCCCCCCCCCCC(=O)[*:2]].[gGlu]}$PEPTIDE1,PEPTIDE2,16:R3-2:R2$$$V2.0
SMILES: CCCCCCCCCCCCCCCC(=O)N[C@@H](CCC(=O)NCCCC[C@H](NC(=O)[C@H](CCC(=O)O)NC(=O)[C@H](CC(C)C)NC(=O)[C@H](Cc1ccc(O)cc1)NC(=O)[C@@H](NC(=O)[C@H](CO)NC(=O)[C@H](Cc1ccc(O)cc1)NC(=O)[C@H](CC(=O)O)NC(=O)[C@H](CO)NC(=O)[C@@H](NC(=O)[C@H](Cc1ccccc1)NC(=O)[C@@H](NC(=O)CNC(=O)[C@H](CCC(N)=O)NC(=O)C(C)(C)NC(=O)[C@@H](N)Cc1ccc(O)cc1)[C@@H](C)O)[C@@H](C)O)[C@@H](C)CC)C(=O)N[C@@H](CCCCN)C(=O)N[C@@H](C)C(=O)N[C@@H](C)C(=O)N[C@@H](CCCCN)C(=O)N[C@@H](CCC(=O)O)C(=O)N[C@@H](Cc1ccccc1)C(=O)N[C@H](C(=O)N[C@@H](CCC(=O)O)C(=O)N[C@@H](Cc1c[nH]c2ccccc12)C(=O)N[C@@H](CC(C)C)C(=O)N[C@@H](CC(C)C)C(=O)N[C@@H](CO)C(=O)N[C@@H](C)C(N)=O)C(C)C)C(=O)O
B7: Compound 25 (peptide)
peptide: YAQGTFTSDYSKYLEKKAAKEFVEWLLSA
HELM: PEPTIDE1{Y.[Aib].Q.G.T.F.T.S.D.Y.S.K.Y.L.E.K.K.A.A.K.E.F.V.E.W.L.L.S.A.[am]}|PEPTIDE2{[CCCCCCCCCCCCCCCC(=O)[*:2]].[gGlu]}$PEPTIDE1,PEPTIDE2,12:R3-2:R2$$$V2.0
SMILES: CCCCCCCCCCCCCCCC(=O)N[C@@H](CCC(=O)NCCCC[C@H](NC(=O)[C@H](CO)NC(=O)[C@H](Cc1ccc(O)cc1)NC(=O)[C@H](CC(=O)O)NC(=O)[C@H](CO)NC(=O)[C@@H](NC(=O)[C@H](Cc1ccccc1)NC(=O)[C@@H](NC(=O)CNC(=O)[C@H](CCC(N)=O)NC(=O)C(C)(C)NC(=O)[C@@H](N)Cc1ccc(O)cc1)[C@@H](C)O)[C@@H](C)O)C(=O)N[C@@H](Cc1ccc(O)cc1)C(=O)N[C@@H](CC(C)C)C(=O)N[C@@H](CCC(=O)O)C(=O)N[C@@H](CCCCN)C(=O)N[C@@H](CCCCN)C(=O)N[C@@H](C)C(=O)N[C@@H](C)C(=O)N[C@@H](CCCCN)C(=O)N[C@@H](CCC(=O)O)C(=O)N[C@@H](Cc1ccccc1)C(=O)N[C@H](C(=O)N[C@@H](CCC(=O)O)C(=O)N[C@@H](Cc1c[nH]c2ccccc12)C(=O)N[C@@H](CC(C)C)C(=O)N[C@@H](CC(C)C)C(=O)N[C@@H](CO)C(=O)N[C@@H](C)C(N)=O)C(C)C)C(=O)O

Key:
Test in all cases: cell-based or functional assay
[1] = target: human glucagon receptor (human) (UniProt P47871)
Chain of human glucagon receptor (human) (P47871 26-477): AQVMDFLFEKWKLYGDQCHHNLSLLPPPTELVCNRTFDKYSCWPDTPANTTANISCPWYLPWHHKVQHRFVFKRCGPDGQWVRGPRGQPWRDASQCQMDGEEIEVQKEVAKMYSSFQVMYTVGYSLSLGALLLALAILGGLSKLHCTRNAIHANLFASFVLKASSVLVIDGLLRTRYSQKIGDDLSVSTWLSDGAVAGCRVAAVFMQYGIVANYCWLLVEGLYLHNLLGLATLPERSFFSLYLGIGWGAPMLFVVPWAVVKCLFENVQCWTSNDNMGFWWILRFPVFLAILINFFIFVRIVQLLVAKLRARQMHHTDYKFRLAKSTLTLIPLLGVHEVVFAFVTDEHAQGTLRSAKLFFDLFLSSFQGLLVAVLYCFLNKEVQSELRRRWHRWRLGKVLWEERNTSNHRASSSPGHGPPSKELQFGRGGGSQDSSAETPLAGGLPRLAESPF

[2] = target: human GIP receptor (human) (UniProt P48546)
[3] = target: human glucagon-like peptide 1 receptor (human) (UniProt P43220)
Chain of human glucagon-like peptide 1 receptor (human) (P43220 24-463): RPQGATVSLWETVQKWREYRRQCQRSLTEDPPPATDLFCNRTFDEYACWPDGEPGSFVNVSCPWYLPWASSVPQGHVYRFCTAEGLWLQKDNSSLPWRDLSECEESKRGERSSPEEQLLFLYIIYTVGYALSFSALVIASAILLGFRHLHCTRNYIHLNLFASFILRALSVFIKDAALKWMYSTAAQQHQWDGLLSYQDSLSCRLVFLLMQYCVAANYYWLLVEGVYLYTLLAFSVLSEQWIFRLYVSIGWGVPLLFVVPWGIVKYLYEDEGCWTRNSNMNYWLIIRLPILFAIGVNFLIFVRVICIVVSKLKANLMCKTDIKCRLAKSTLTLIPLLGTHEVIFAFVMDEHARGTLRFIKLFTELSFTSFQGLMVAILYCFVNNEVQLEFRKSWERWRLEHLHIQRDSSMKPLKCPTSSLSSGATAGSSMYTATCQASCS

[4] = target: T2, human glucagon-like peptide 1 receptor (human, UniProt P43220 24-463)
[5] = target: T3, human glucagon receptor (human, UniProt P47871 26-477)
T3 sequence (P47871 26-477): as the sequence (P47871 26-477) above

[6] = target: T1, human GIP receptor
[7] = target: T2, human glucagon-like peptide 1 receptor; remark: listed apart in the source
[8] = target: T3, human glucagon receptor; remark: listed apart in the source
[9] = target: T1, human GIP receptor; remark: listed apart in the source

Molecule | EC50 (cAMP induction) [1] [nM] | EC50 (cAMP induction) [2] [nM] | EC50 (cAMP induction) [3] [nM] | EC50 (cAMP induction) [4] [nM] | EC50 (cAMP induction) [5] [nM] | EC50 (cAMP induction) [6] [nM] | EC50 (cAMP induction) [7] [nM] | EC50 (cAMP induction) [8] [nM] | EC50 (cAMP induction) [9] [nM]
Exendin-4 (from UniProt P26349 48-86) (peptide) | > 10 | 0.004 |  |  |  |  |  |  | 
B1 | 0.032 | 0.015 | 0.036 |  |  |  |  |  | 
B2 |  |  |  | 0.0094 | 0.057 | 0.047 | 0.057 | 0.057 | 0.009
B3 |  |  |  | 0.014 | 0.1 | 0.18 | 0.1 | 0.1 | 0.015
B4 |  |  |  | 0.028 | 0.76 | 0.18 | 0.76 | 0.76 | 0.03
B5 |  |  |  | 0.11 | 0.14 | 0.13 | 0.14 | 0.14 | 0.11
B6 |  |  |  | 0.091 | 0.28 | 0.1 | 0.091 | 0.28 | 0.1
B7 |  |  |  | 0.28 | 0.3 | 0.25 | 0.28 | 0.3 | 0.25
